Experiment [1] deals with T1, MBP-fused PDZ domain of MAST2 (human, UniProt Q6P0Q8 1104-1192).
T1 sequence (looked up): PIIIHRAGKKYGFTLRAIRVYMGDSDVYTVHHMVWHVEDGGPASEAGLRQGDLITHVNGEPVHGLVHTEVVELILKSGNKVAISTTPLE
As to the kind of experiment: fluorescence polarisation.

Experiment [2] deals with T2, MBP-fused PDZ domain 3 of PDZD7 (human, UniProt Q9H5P4 862-934).
T2 sequence (looked up): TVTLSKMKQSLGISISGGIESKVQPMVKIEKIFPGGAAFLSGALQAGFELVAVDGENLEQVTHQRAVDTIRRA
The experiment is described as follows: fluorescence polarisation.

For experiment [3], the target named is T3, MBP-fused PDZ domain of MAST1 (human, UniProt Q9Y2H9 967-1055).
T3 sequence (looked up): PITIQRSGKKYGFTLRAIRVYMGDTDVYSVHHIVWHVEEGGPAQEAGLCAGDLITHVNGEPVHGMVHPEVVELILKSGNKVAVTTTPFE
The experiment is described as follows: fluorescence polarisation. Background: Fluorescence polarisation rises when a labelled molecule tumbles more slowly, as on binding a larger partner.

Experiment [4] has as its target T4, MBP-fused PDZ domain 1 of PARD3B (human, UniProt Q8TEW8 201-289).
T4 sequence (looked up): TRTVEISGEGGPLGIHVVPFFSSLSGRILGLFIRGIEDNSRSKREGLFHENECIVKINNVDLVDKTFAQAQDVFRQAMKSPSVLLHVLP
As to the kind of experiment: fluorescence polarisation.

For experiment [5], the target named is T5, MBP-fused PDZ domain of HTRA1 (human, UniProt Q92743 365-467). As to the kind of experiment: fluorescence polarisation.
Experiment [6] has as its target T6, MBP-fused PDZ domain of SNTG2 (human, UniProt Q9NY99 73-156).
T6 sequence (looked up): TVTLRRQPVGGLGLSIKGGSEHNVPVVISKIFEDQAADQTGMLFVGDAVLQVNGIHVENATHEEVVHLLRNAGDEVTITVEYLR
As to the kind of experiment: fluorescence polarisation.

For experiment [7], the target named is T7, MBP-fused PDZ domain of SNTA1 (human, UniProt Q13424 87-170).
T7 sequence (looked up): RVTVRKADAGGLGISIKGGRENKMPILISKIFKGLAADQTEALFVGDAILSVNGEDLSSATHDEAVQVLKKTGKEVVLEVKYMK
The experiment is described as follows: fluorescence polarisation.

Experiment [8] concerns the target T8, MBP-fused PDZ domain of SNTB1 (human, UniProt Q13884 112-195).
T8 sequence (looked up): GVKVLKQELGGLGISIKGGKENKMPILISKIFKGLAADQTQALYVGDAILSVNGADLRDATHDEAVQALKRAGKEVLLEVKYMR
As to the kind of experiment: fluorescence polarisation.

The target in experiment [9] is T9, MBP-fused PDZ domain of SNX27 (human, UniProt Q96L92 43-136). As to the kind of experiment: fluorescence polarisation.
The target of experiment [10] is T10, MBP-fused PDZ domain 2 of GRID2IP (human, UniProt A4D2P6 279-356). As to the kind of experiment: fluorescence polarisation.
The target of experiment [11] is T1, MBP-fused PDZ domain of MAST2. The experiment is described as follows: fluorescence polarisation. The source holds these as a separate data set.
The target of experiment [12] is T2, MBP-fused PDZ domain 3 of PDZD7. The experiment is described as follows: fluorescence polarisation. This is another data set of the same source.
In experiment [13] the target is T3, MBP-fused PDZ domain of MAST1. The experiment is described as follows: fluorescence polarisation. The source holds these as a separate data set.
For experiment [14], the target named is T11, MBP-fused PDZ domain 1 of NHERF3 (human, UniProt Q5T2W1 9-90).
T11 sequence (looked up): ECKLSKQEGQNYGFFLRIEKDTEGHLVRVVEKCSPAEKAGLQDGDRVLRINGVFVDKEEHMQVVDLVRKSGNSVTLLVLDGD
As to the kind of experiment: fluorescence polarisation.

Experiment [15] deals with T4, MBP-fused PDZ domain 1 of PARD3B. The experiment is described as follows: fluorescence polarisation. The source holds these as a separate data set.
For experiment [16], the target named is MBP-fused PDZ domain 2 of MAGI2 (human, UniProt Q86UL8 426-510). The experiment is described as follows: fluorescence polarisation.
The target in experiment [17] is T5, MBP-fused PDZ domain of HTRA1. As to the kind of experiment: fluorescence polarisation. This is another data set of the same source.
Experiment [18] deals with T12, MBP-fused PDZ domain 1 of PDZRN4 (human, UniProt Q6ZMN7 224-314).
T12 sequence (looked up): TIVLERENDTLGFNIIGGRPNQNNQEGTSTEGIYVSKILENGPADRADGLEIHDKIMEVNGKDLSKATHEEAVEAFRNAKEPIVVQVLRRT
As to the kind of experiment: fluorescence polarisation.

In experiment [19] the target is T6, MBP-fused PDZ domain of SNTG2. The experiment is described as follows: fluorescence polarisation. The source holds these as a separate data set.
For experiment [20], the target named is T13, MBP-fused PDZ domain 1 of PDZRN3 (human, UniProt Q9UPQ7 249-339).
T13 sequence (looked up): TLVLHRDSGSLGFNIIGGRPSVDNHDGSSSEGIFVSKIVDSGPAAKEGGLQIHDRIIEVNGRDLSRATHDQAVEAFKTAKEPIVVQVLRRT
As to the kind of experiment: fluorescence polarisation.

Experiment [21] concerns the target T7, MBP-fused PDZ domain of SNTA1. The experiment is described as follows: fluorescence polarisation. The source holds these as a separate data set.
For experiment [22], the target named is T8, MBP-fused PDZ domain of SNTB1. As to the kind of experiment: fluorescence polarisation. This is another data set of the same source.
The target of experiment [23] is T14, MBP-fused PDZ domain of SYNJ2BP (human, UniProt P57105 13-100).
T14 sequence (looked up): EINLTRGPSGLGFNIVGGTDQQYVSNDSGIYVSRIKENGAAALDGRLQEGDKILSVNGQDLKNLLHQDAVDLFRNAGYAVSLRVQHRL
As to the kind of experiment: fluorescence polarisation.

Experiment [24] has as its target T9, MBP-fused PDZ domain of SNX27. The experiment is described as follows: fluorescence polarisation. The source holds these as a separate data set.
Experiment [25] concerns the target T15, MBP-fused PDZ domain of ARHGEF12 (human, UniProt Q9NZN5 72-151).
T15 sequence (looked up): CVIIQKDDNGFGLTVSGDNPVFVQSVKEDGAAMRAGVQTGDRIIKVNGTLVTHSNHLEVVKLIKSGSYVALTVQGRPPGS
As to the kind of experiment: fluorescence polarisation.

For experiment [26], the target named is T10, MBP-fused PDZ domain 2 of GRID2IP. As to the kind of experiment: fluorescence polarisation. The source holds these as a separate data set.
For experiment [27], the target named is T16, biotinylated RSK1 725-735 peptide, unphosphorylated (human, UniProt Q15418 725-735).
T16 peptide (looked up): {Biotin-TTDS}-RRVRKLPSTTL
As to the kind of experiment: holdup assay.

Where two headings read alike, the source gives them in different places. Where no end group is shown, it is not given here. The star is where a group is joined. Biotin = O=C1N[C@H]2[C@H](CS[C@H]2CCCCC(=O)*)N1; TTDS = NCCCOCCOCCOCCCNC(=O)CCC(=O)*

The Kd is the free concentration of one partner at which half of the binding sites on the other are occupied at equilibrium, for simple one-to-one binding. A lower Kd goes with higher affinity.

T5 sequence (Q92743 365-467): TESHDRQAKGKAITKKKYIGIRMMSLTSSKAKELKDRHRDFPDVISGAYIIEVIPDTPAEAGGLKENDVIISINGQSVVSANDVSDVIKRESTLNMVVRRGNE
T10 sequence (A4D2P6 279-356): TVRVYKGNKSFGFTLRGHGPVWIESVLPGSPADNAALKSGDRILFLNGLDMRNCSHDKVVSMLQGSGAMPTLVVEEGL
Chain of MBP-fused PDZ domain 2 of MAGI2 (Q86UL8 426-510): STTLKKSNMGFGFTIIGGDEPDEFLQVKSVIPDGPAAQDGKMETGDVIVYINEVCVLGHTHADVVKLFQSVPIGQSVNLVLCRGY

B1: RSK1 683-735 peptide, unphosphorylated (peptide, UniProt Q15418 683-735, looked up)
peptide: QSQLSHQDLQLVKGAMAATYSALNSSKPTPQLKPIESSILAQRRVRKLPSTTL
Turning to B1, the Kd in experiment [1] stood at 19 ± 7 µM; in [2], 4 ± 1 µM; in experiment [3], 5 ± 1 µM; in experiment [4], 45 ± 7 µM; in experiment [5], 19 ± 3 µM; in [6], 24 ± 12 µM. Further, the Kd in experiment [7] is 81 ± 17 µM; in experiment [8], 37 ± 6 µM; in experiment [9], 185 ± 25 µM; in [10] it was 1.7 ± 0.3 µM.
Regarding KLPSTTL (peptide, UniProt Q15418 729-735, looked up, also: fluorescein labeled, site not given here) [fluorescein labeled RSK1 729-735 peptide, unphosphorylated], the Kd in experiment [11] was 7.9 ± 0.6 µM; in [12], 0.8 ± 0.05 µM; in experiment [13], 26 ± 4 µM; in [14], 80 ± 20 µM; in experiment [15] it was 27 ± 3 µM; in experiment [16], 420 ± 30 µM. Further, the Kd in [17] is 30 ± 2 µM; in experiment [18] it was 33 ± 5 µM; in experiment [19], 65 ± 2 µM; in experiment [20] it was 90 ± 25 µM; in experiment [21] it was 41 ± 11 µM; in experiment [22], 18 ± 2 µM. Moreover, the Kd in experiment [23] is 39 ± 2 µM; in [24], 25 ± 6 µM; in experiment [25], 7.5 ± 0.8 µM; in experiment [26], 5.1 ± 0.4 µM.
As for KLPSTTL (peptide, UniProt Q15418 729-735, looked up, phosphorylated; fluorescein labeled) [fluorescein labeled RSK1 729-735 peptide, phosphorylated], the Kd in [11] turned out to be 13 ± 2 µM; in experiment [12] it was 1.8 ± 0.1 µM; in experiment [13] it was 34 ± 8 µM; in experiment [14], 220 ± 30 µM; in experiment [15], 6.8 ± 0.5 µM; in experiment [16], 430 ± 45 µM. In addition, the Kd in experiment [17] stood at 11.3 ± 0.4 µM; in experiment [18] it was 14 ± 2 µM; in experiment [19] it was 24 ± 2 µM; in experiment [20], 17.5 ± 1.4 µM; in experiment [21] it was 4.9 ± 0.4 µM; in [22], 1.5 ± 0.1 µM. Besides, the Kd in [23] worked out at 16 ± 1 µM; in experiment [24] it was 4.4 ± 0.4 µM; in experiment [25], 29 ± 8 µM; in experiment [26], 47 ± 15 µM.

B2: first PDZ domain of Scribble (domain or fragment)
chain: not shown
B2 came in with a Kd in experiment [27] of 60 to 70 µM.

The values above are taken from article PMC6424611 (Journal of molecular biology, 2019).
